These are literature values, as cited in PMC6699087.

In the series the target is Hsp90 (Homo sapiens) (UniProt P08238).
Sequence of UniProt P08238 (P08238 2-724): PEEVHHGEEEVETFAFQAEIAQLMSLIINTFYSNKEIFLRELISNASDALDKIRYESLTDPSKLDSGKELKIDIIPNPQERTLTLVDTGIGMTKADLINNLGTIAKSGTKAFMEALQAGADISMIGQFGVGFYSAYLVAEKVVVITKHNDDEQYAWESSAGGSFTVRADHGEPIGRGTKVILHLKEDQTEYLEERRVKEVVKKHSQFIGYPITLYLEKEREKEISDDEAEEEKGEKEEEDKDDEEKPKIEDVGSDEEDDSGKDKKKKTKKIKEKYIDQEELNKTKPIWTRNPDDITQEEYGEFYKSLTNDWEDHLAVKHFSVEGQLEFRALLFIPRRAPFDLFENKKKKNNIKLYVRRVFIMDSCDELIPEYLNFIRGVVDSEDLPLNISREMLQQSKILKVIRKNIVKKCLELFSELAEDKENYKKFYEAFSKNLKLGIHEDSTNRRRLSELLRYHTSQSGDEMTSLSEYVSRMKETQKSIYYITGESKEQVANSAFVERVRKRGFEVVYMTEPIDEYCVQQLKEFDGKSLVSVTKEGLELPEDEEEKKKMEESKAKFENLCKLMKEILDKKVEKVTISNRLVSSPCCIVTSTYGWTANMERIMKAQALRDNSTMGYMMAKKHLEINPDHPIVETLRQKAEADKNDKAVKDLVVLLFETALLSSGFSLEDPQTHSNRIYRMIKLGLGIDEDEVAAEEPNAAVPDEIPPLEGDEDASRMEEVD

Take Aha1 (from UniProt O95433): the equilibrium dissociation constant (Kd) was 0.5 µM.
